Experimental findings from patent US10640563B2, “Anti-B7-H3 antibodies and antibody drug conjugates” (AbbVie Inc., priority 2016, dated 2020) are described below.

For data set [1], the system named is NCI-H146 xenograft. Put plainly: NCI-H146 small cell lung cancer xenograft efficacy. Type of data set: in vivo, mouse. The note with it: NCI-H146 xenograft in SCID/bg mice; 10 mg/kg IP QDx1. The procedure:
Antibody MSL109 (an IgG1 antibody that binds to cytomegalovirus (CMV) glycoprotein H) was used as a control, both as a naked antibody and as an ADC (conjugated to the same synthon (CZ) as the chAb3, chAb18, and chAb13 antibodies). MSL109 is an isotype matched non-targeting control. The methods of this xenograft assay are described below.
NCI-H146 cells, NCI-1650 cells, and EBC-1 cells were obtained from the American Type Culture Collection (ATCC, Manassas, Va.). The cells were cultured as monolayers in RPMI-1640 (NCI-H146, NCI-H1650) or MEM (EBC-1) culture media (Invitrogen, Carlsbad, Calif.) that was supplemented with 10% Fetal Bovine Serum (FBS, Hyclone, Logan, Utah). To generate xenografts, 5×10^6 viable cells were inoculated subcutaneously into the right flank of immune deficient female SCID/bg mice (Charles River Laboratories, Wilmington, Mass.) respectively. The injection volume was 0.2 mL and composed of a 1:1 mixture of S MEM and Matrigel (BD, Franklin Lakes, N.J.). Tumors were size matched at approximately 200 mm^3. Antibodies and conjugates were formulated in 0.9% sodium chloride for injection and injected intraperitoneally. […] Therapy began within 24 hours after size matching of the tumors. Mice weighed approximately 22 g at the onset of therapy. Tumor volume was estimated two to three times weekly. Measurements of the length (L) and width (W) of the tumor were taken via electronic caliper and the volume was calculated according to the following equation: V=L×W^2/2. Mice were euthanized when tumor volume reached 3,000 mm3 or skin ulcerations occurred. Eight mice were housed per cage. Food and water were available ad libitum. Mice were acclimated to the animal facilities for a period of at least one week prior to commencement of experiments. Animals were tested in the light phase of a 12-hour light: 12-hour dark schedule (lights on at 06:00 hours). As described above, human IgG control antibody (MSL109) was used as a negative control agent.
To refer to efficacy of therapeutic agents, parameters of amplitude (TGImax), durability (TGD) of therapeutic response are used. TGImax is the maximum tumor growth inhibition during the experiment. Tumor growth inhibition is calculated by 100*(1−Tv/Cv) where Tv and Cv are the mean tumor volumes of the treated and control groups, respectively. TGD or tumor growth delay is the extended time of a treated tumor needed to reach a volume of 1 cm^3 relative to the control group. TGD is calculated by 100*(Tt/Ct−1) where Tt and Ct are the median time periods to reach 1 cm^3 of the treated and control groups, respectively.

The nature of data set [2]: Observation after conjugation to synthon (Method A). Type of data set: physicochemical. The following applies: after conjugation to Bcl-xLi synthon CZ. The procedure: (§1) Nine anti-B7-H3 chimeric antibodies were conjugated to the Bcl-xL inhibiting (Bcl-xLi) synthon CZ (Example 2.1) using conjugation Method A described below. The resulting ADCs (anti-B7-H3 antibodies conjugated to synthon CZ) were tested for binding to cell surface human B7-H3 by FACS (as described in Example 6) and for cell cytotoxicity in cell lines expressing B7-H3. […] Table 6 provides cell surface binding and cytotoxicity activity of anti-B7-H3 chimera ADCs against breast cancer cell HCC38 expressing human B7-H3.
A solution of Bond-Breaker™ tris(2-carboxyethyl)phosphine (TCEP) solution (10 mM, 0.017 mL) was added to a solution of antibody (10 mg/mL, 1 mL) preheated to 37° C. The reaction mixture was kept at 37° C. for 1 hour. The solution of reduced antibody was added to a solution of synthon (3.3 mM, 0.160 mL in DMSO) and gently mixed for 30 minutes. The reaction solution was loaded onto a desalting column (PD10, washed with Dulbecco's phosphate-buffered saline [DPBS] 3× before use), followed by DPBS (3 mL). The purified ADC solution was filtered through a 0.2 micron, low protein-binding 13 mm syringe-filter and stored at 4° C.

The nature of data set [3]: Size exclusion chromatography, % aggregate of ADC. Format: physicochemical. The following applies: ADC with synthon CZ, conjugation Method A. As to the method: The DAR and percentage aggregation of ADCs synthesized were determined by LC-MS and size exclusion chromatography (SEC), respectively.
Size exclusion chromatography was performed using a Shodex KW802.5 column in 0.2 M potassium phosphate pH 6.2 with 0.25 mM potassium chloride and 15% IPA at a flow rate of 0.75 ml/min. The peak area absorbance at 280 nm was determined for each of the high molecular weight and monomeric eluents by integration of the area under the curve. The % aggregate fraction of the conjugate sample was determined by dividing the peak area absorbance at 280 nm for the high molecular weight eluent by the sum of the peak area absorbances at […] of the high molecular weight and monomeric eluents multiplied by 100%.

Data set [4] concerns HCC38 (breast cancer) cells. Put plainly: In vitro cell viability assay (CellTiter-Glo), HCC38. Format: cell-based, human. The note with it: ADC with synthon CZ; HCC38 breast cancer cells; viability after 5 days; read-out: Cytotoxicity (HCC38 cell line IC50nM). As to the method:
as §1
The tumor cell lines HCC38 (breast cancer), NCI-H1650 (NSCLC) and NCI-H847 (small cell lung cancer cell line) were obtained from American Type Culture Collection (ATCC). Cells were grown in 96-well culture plates using recommended growth media overnight at a density of 5×10^3 (HCC38) or 20×10^3 (NCI-H847) or 40×10^3 (NCI-H1650) per well. The following day, treatments were added in fresh media to triplicate wells. Cellular viability was determined 5 days later using the CellTiter-Glo Luminescent Cell Viability Assay kit (Promega), as directed in the manufacturer's protocol. Cell viability was assessed as percentage of control untreated cells.
Background: In ATP-based viability assays light output follows the ATP content of the culture.

Data set [5] concerns HCC38 cell line. As to the kind of experiment: Cell cytotoxicity of ADCs in HCC38 cell line. Format: cell-based. The following applies: Table 10; CZ conjugates. The procedure:
The humanization of chAb18 generated 10 variants (described above in Table 9) that retained binding to human and cyno B7-H3 as assessed by FACS (the method of which is described above in Example 6). These variants were further characterized for binding by SPR and were successfully conjugated to the Bcl-xL inhibitor synthon CZ using Method A (described above) and assessed for cell cytotoxicity as described in Example 7. The parental chAb18 from which the variants were derived was also tested as a comparator. All humanized variants had similar binding properties as assessed by biacore, and retained binding activity to cell surface expressed as conjugates with the CZ synthon. The cytotoxicity of all of the variants as CZ synthons were similar to the chAb18 from which they were derived.
Humanized chAb18 variants were conjugated to the CZ synthon and tested for cytotoxicity in HCC38 cell line.

“MSL109: an IgG1 antibody that binds to cytomegalovirus (CMV) glycoprotein H; isotype matched non-targeting control [reference compound]”: in data set [1], the “TGD (%)” value came to 0% and the “TGImax (%)” value came out at 0%.

B1: chAb4-CZ (conjugate)
VH: QVQLQQPGAELVKPGASVKLSCKASGYSFTSYWMHWVKQRPGQGLEWIGMIHPNSGSNNYNEKFKSKATLTVDKSSNTAYMQLSSLTSEDSAVYYCARRLGLHFDYWGQGTTLTVSS
VL: DIVMTQSQKFMSTPVGDRVSITCKASQNVGTAVAWYQQKPGQSPKLLIYSASNRYTGVPDRFTGSGSGTDFTLTISNMQSEDLADYFCQQYSSYPYTFGGGTKLEIK
With B1, in data set [2], the Conjugation observation entry is “Clear”. In addition, the “% agg by SEC” value in data set [3] came out at 5.7%. Also, in data set [4], the IC50 is 0.26 nM.

B2: chAb18-CZ (conjugate)
VH: QVQLQQSAAELARPGASVKMSCKASGYSFTSYTIHWVKQRPGQGLEWIGYINPNSRNTDYNQKFKDETTLTADRSSSTAYMQLISLTSEDSAVYYCARYSGSTPYWYFDVWGAGTTVTVSS
VL: QIVLTQSPAILSASPGEKVTMTCRASSSVSYMNWYQQKPGSSPKPWIYATSNLASGVPARFSVSVSGTSHSLTISRVEAEDAATYYCQQWSSNPLTFGAGTKLELK
Take B2: the Conjugation observation entry in data set [2] was “Clear”. For the same molecule, in data set [3], the “% agg by SEC” value worked out at 4.3%. Further, in data set [1], the “TGD (%)” value came out at 100% and the “TGImax (%)” value was 90%. The molecule further showed an IC50 in data set [5] of 0.28 nM. Moreover, the IC50 in data set [4] worked out at 0.28 nM.

B3: chAb14-CZ (conjugate)
VH: EVKLVESGGGLVKPGGSLKLSCAASGFTFSSYGMSWVRQTPEKRLEWVATISGGGTNTYYPDSVEGRFTISRDNAKNFLYLQMSSLRSEDTALYYCARHYGSQTMDYWGQGTSVTVSS
VL: DIQMTQSPASLSASVGETVTITCRTSGNIHNYLTWYQQKQGKSPQLLVYNAKTLADGVPSRFSGSGSGTQFSLKINSLQPEDFGSYYCQHFWSIMWTFGGGTKLEIK
As for B3, the Conjugation observation entry in data set [2] was “Clear”. Further, the “% agg by SEC” value in data set [3] was found to be 1.9%. In addition, the IC50 in data set [4] came to 2.01 nM.

B4: chAb13-CZ (conjugate)
VH: DVQLQESGPDLVKPSQSLSLTCTVTGYSITSGYSWHWIRQFPGNKLEWMGYIHSSGSTNYNPSLKSRISINRDTSKNQFFLQLNSVTTEDTATYYCAGYDDYFEYWGQGTTLTVSS
VL: DIVMTQSQKFMSTSVGDRVSVTCKASQNVGFNVAWYQQKPGQSPKALIYSASYRYSGVPDRFTGSGSGTDFTLTISNVQSEDLAEYFCQQYNSYPFTFGSGTKLEIK
Turning to B4, the Conjugation observation result in data set [2] is recorded as “Clear”. For the same molecule, the “% agg by SEC” value in data set [3] is recorded as 8.3%. In data set [1], the “TGD (%)” value was found to be 104% and the “TGImax (%)” value amounted to 81%. Also, the IC50 in data set [4] stood at 0.18 nM.

B5: chAb6-CZ (conjugate)
VH: QVQLQQSGAELMKPGASVKISCKATGYTFSRYWIEWVKQRPGHGLEWIGEILPGSGSTNYNEKFKGKATFTADTSSNTAYMQVSSLTSEDSAVHYCARRGYGYVPYALDYWGQGTSVTVSS
VL: EIQMTQTTSSLSASLGDRVTISCRASQDISNSLNWYQQKPDGTVNLLIYYTSRLYSGVPSRFSGSGSGTDYSLTISNLEQEDIATYFCQQGNTLPYTFGGGTKLEIK
With B5, the Conjugation observation result in data set [2] is reported as “Precipitates”. Moreover, the “% agg by SEC” value in data set [3] was 0.5%. Further, the IC50 in data set [4] was 81 nM.

B6: chAb16-CZ (conjugate)
VH: EVKLLESGGGLVQPGGSLKLSCAASGFDFSRYWMSWVRQAPGKGLEWIGEINPDSSTINYTPSLKDKFIISRDNAKNTLYLQMSKVRSEDTALYYCARPGFGNYIYAMDYWGQGTSVTVSS
VL: DIQMTQTTSSLSASLGDRVTINCRASQDISNFLNWYQQKPDGTVKLLIYYTSRLYLGVPSRFSGSGSGTDYSLTISNLEQEDIATYFCQQGNTLPPTFGGGTKLEIK
As to B6, in data set [2], the Conjugation observation result is given as “Precipitates”. Besides, in data set [3], the “% agg by SEC” value was found to be 2.3%. For the same molecule, the IC50 in data set [4] came to 21.9 nM.

B7: chAb2-CZ (conjugate)
VH: QVQLQQPGAELVKPGASVKLSCKASGYTFTSYWMHWVKQRPGQGLEWIGMIHPDSGTTNYNEKFRSKATLTVDKSSSTAYMQLSSLTSEDSAVYYCAVYYGSTYWYFDVWGTGTTVTVSS
VL: DVVMTQTPLSLPVSLGDQAYISCRSSQSLVHINGNTYLHWYRQKPGQSPKLLIYKVSNRFSGVPDRFSGSGSGTDFTLKISRVEAEDLGVYFCSQSTHFPFTFGSGTKLEIK
Take B7: the Conjugation observation entry in data set [2] is listed as “Precipitates”. Further, in data set [3], the “% agg by SEC” value amounted to 5.9%. In addition, the IC50 in data set [4] is 4.77 nM.

B8: chAb11-CZ (conjugate)
VH: EVKLVESGGGLVQPGGSLRLSCATSGFTFTNYYMSWVRQPPGKALEWLGFIRNKANDYTTEYSASVKGRFTISRDNSQSILYLQMNTLRAEDSATYYCARESPGNPFAYWGQGTLVTVSA
VL: DIVMTQSPSSLTVTAGEKVTMTCKSSQSLLNSGTQKNFLTWYQQKPGQPPKLLIYWASTRESGVPDRFTGSGSGTDFTLTISSVQAEDLAVYFCQNDYIYPLTFGAGTKLELK
In the case of B8, the Conjugation observation result in data set [2] is “Clear”. Also, the “% agg by SEC” value in data set [3] stood at 5.6%. Moreover, in data set [4], the IC50 was 2.34 nM.
